Article PMC11161652, “ASXLs binding to the PHD2/3 fingers of MLL4 provides a mechanism for the recruitment of BAP1 to active enhancers” (Nature Communications, 2024)
Numbering of substitutions follows the chain as printed.

Columns and labels:
MLL4_(PHD2/3) E292K [1] = target: MLL4_(PHD2/3) E292K (human, UniProt O14686 227-324, E292K)
MLL3_(PHD2/3) D372N = target: T1, MLL3_(PHD2/3) D372N (human, UniProt Q8NEZ4 342-439, D372N)
T1 sequence: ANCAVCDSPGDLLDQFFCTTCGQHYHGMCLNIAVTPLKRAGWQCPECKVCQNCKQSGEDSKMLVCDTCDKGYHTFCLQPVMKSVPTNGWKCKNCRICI

MLL3_(PHD2/3) D372K = target: T2, MLL3_(PHD2/3) D372K (human, UniProt Q8NEZ4 342-439, D372K)
T2 sequence: T1 sequence with N31K

MLL3_(PHD2/3) E387Q = target: T3, MLL3_(PHD2/3) E387Q (human, UniProt Q8NEZ4 342-439, E387Q)
T3 sequence: T1 sequence with N31D, E46Q

MLL3_(PHD2/3) D400K = target: T4, MLL3_(PHD2/3) D400K (human, UniProt Q8NEZ4 342-439, D400K)
T4 sequence: T1 sequence with N31D, D59K

[2] = target: T5, PHD2 and PHD3 fingers of human MLL3 (aa 342-439) (human, UniProt Q8NEZ4 342-439); test: other fluorescence titration; tryptophan fluorescence, 25 °C; 1.0 µM MLL4 PHD2/3 or MLL3 PHD2/3 with increasing peptide; excitation 295 nm; 20 mM Tris pH 7.2, 150 mM NaCl, 1 mM TCEP, 0.02% Tween20; average of three measurements; conditions: both partners purified
T5 construct: PHD2 and PHD3 fingers of human MLL3 (KMT2C), aa 342-439; 15N-labelled for NMR titrations; also used unlabelled as the titrant against MLL3 PHD4; also called MLL3_(PHD2/3); MLL3 PHD2/3; source: E. coli BL21-CodonPlus, purified (glutathione agarose, PreScission cleavage; unlabeled proteins also SEC)
T5 sequence (looked up): T1 sequence with N31D

MLL4_(PHD2/3) D257K = target: T6, MLL4_(PHD2/3) D257K (human, UniProt O14686 227-324, D257K); test: as above; conditions: both partners purified
T6 construct: human MLL4 (KMT2D), aa 227-324; source: E. coli BL21-CodonPlus, purified as WT
T6 sequence (looked up): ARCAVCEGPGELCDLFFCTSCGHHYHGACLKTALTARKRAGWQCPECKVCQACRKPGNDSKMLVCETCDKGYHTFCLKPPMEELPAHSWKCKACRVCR

MLL4_(PHD2/3) E272K = target: T7, MLL4_(PHD2/3) E272K (human, UniProt O14686 227-324, E272K); test: as above; conditions: both partners purified
T7 construct: human MLL4 (KMT2D), aa 227-324; E272K is said to be found in cancers (Cosmic); source: E. coli BL21-CodonPlus, purified as WT
T7 sequence (looked up): T6 sequence (looked up) with K31D, E46K

MLL4_(PHD2/3) E292K [3] = target: T8, MLL4_(PHD2/3) E292K (human, UniProt O14686 227-324, E292K); test: as above; conditions: both partners purified
T8 construct: human MLL4 (KMT2D), aa 227-324; E292K is said to be found in cancers (Cosmic); source: E. coli BL21-CodonPlus, purified as WT
T8 sequence (looked up): T6 sequence (looked up) with K31D, E66K

MLL4_(PHD2/3) S314A = target: T9, MLL4_(PHD2/3) S314A (human, UniProt O14686 227-324, S314A); test: as above; conditions: both partners purified
T9 construct: human MLL4 (KMT2D), aa 227-324; source: E. coli BL21-CodonPlus, purified as WT
T9 sequence (looked up): T6 sequence (looked up) with K31D, S88A

Kd (MLL4_(PHD2/3) E292K [1]): 10 µM
Kd (MLL3_(PHD2/3) D372N): 9 µM
Kd (MLL3_(PHD2/3) D372K): 55 µM
Kd (MLL3_(PHD2/3) E387Q): 6 µM
Kd (MLL3_(PHD2/3) D400K): 540 µM
Kd [2]: 1.4 µM
Kd (MLL4_(PHD2/3) D257K): 27 µM
Kd (MLL4_(PHD2/3) E272K): 28 µM
fold reduction in binding against wild type MLL4_(PHD2/3) (MLL4_(PHD2/3) E292K [3]): ~14 fold
Kd (MLL4_(PHD2/3) S314A): 0.8 µM
B1: ASXL2 peptide (residues 650-670 of ASXL2) (peptide, UniProt Q76L83 650-670, looked up)
peptide: NRTGARTLADIKAKAQLVKAQ
notes: also called ASXL2 (aa 650-670); MBH of ASXL2; source: synthetic peptide (SynPeptide)
